Data as given in US20120100139A1 (APTEVO RESEARCH AND DEVELOPMENT, published 2012).

T1: CD86 on cells (WIL2-S human B-lymphoblastoid cells; HuCD86-2A2 CHO cells expressing CD86) (human, UniProt P42081 24-329)
T1 construct: whole, on cells; also called cell surface CD86
T1 sequence (looked up): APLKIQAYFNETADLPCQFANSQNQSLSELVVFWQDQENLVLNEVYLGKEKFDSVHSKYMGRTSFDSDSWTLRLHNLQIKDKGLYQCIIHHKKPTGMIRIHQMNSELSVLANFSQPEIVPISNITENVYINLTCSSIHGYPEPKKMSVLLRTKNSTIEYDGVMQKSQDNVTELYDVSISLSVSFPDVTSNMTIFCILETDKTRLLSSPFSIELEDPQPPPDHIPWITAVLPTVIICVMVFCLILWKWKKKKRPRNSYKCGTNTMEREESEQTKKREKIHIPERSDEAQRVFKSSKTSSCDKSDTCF

T2: CD86-mIgG (Ancell, Inc) (UniProt P42081 24-247, limits assumed)
T2 construct: Bought reagent
T2 sequence (looked up): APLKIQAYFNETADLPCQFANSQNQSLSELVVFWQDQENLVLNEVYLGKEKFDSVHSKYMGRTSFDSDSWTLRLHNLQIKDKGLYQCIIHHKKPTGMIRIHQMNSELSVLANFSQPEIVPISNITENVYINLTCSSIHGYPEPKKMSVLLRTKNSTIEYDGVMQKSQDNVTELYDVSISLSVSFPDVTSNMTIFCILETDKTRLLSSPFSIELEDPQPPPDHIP


How the values were obtained:
[1] = biological target: T1, CD86 on cells (WIL2-S human …); test: flow cytometry on WIL2-S cells
Procedure: (§1) Briefly, WIL2-S or HuCD86-2A2 cells were incubated with test molecules containing a CD86 antagonist at concentrations ranging from saturation to background levels. […] After the incubation, cells were washed and a fluorophore (R-phycoerythrin) tagged F(Ab′)₂ antibody specific for the Fc portion of the xceptor molecule, IL10R-Ig fusion protein, or anti-IL10 antibody. The tagged cells were then passed through a flow cytometer and data was analyzed by plotting median fluorescence intensity of each sample.

CD86-mIgG (Ancell, Inc) = biological target: T2, CD86-mIgG (Ancell, Inc); test: SPR, CD86-mIgG immobilized; reference of the comparison
[2] = biological target: T1, CD86 on cells (WIL2-S human …); test: flow cytometry, HEK293 supernatants on HuCD86-2A2 cells
Procedure: as §1
In another experiment, different versions of humanized FUN1 SMIPs were tested for CD86 binding. Supernatants of HEK293 cells transiently transfected with the six different versions of humanized FUN1 SMIPs were examined for CD86 binding using HuCD86-2A2 cells.

Row | Binder | binding result [1] | binding result (CD86-mIgG (Ancell, Inc)) | binding result [2]
1 | FUN1::IL10 xceptor (Fc fusion, anti-CD86 FUN1 scFv - Fc - IL10) EVQLQQSGPELEKPGASVKISCKASGYSFTDYNMNWVKQSNGKSLEWIGNIDPYYGGTSYNQKFKGKATLTVDKSSSTAYMQLNSLTSEDSAVYFCARWDYRYDDGRAYYVMDFWGQGTSVTVSSGGGGSGGGGSGGGGSGGGGSELQMTQSPSSLAASAGEKVTMSCKSSQSVLYSSNQKNYLAWYQQKPGQSPKLLIYWASTRESGVPDRFTGSGSGTHFTLTVSSVQAEDLAVYYCHQYLYSWTFGGGTNLEIKRLEPKSSDKTHTCPPCPAPEAAGAPSVFLFPPKPKDTLMISRTPEVTCVVVDVSHEDPEVKFNWYVDGVEVHNAKTKPREEQYNSTYRVVSVLTVLHQDWLNGKAYACAVSNKALPAPIEKTISKAKGQPREPQVYTLPPSRDELTKNQVSLTCLVKGFYPSDIAVEWESNGQPENNYKTTPPVLDSDGSFFLYSKLTVDKSRWQQGNVFSCSVMHEALHNHYTQKSLSLSPGNSLFNQEVQIPLTESYSPNSSPGQGTQSENSCTHFPGNLPNMLRDLRDAFSRVKTFFQMKDQLDNLLLKESLLEDFKGYLGCQALSEMIQFYLEEVMPQAENQDPDIKAHVNSLGENLKTLRLRLRRCHRFLPCENKSKAVEQVKNAFNKLQEKGIYKAMSEFDIFINYIEAYMTMKIRN | binds | binds | 
2 | FUN1-22 humanized FUN1 SMIP (Fc fusion, SMIP: scFv-hinge-Fc single chain) QVQLVQSGAEVKKPGASVKVSCKASGYTFTDYNMNWVRQAPGQGLEWMGNIDPYYGGTSYNQKFKGRVTMTRDTSISTAYMELSRLRSDDTAVYYCARWDYRYDDGRAYYVMDFWGQGTTVTVSSGGGGSGGGGSGGGGSGGGGSDIQMTQSPSSLSASVGDRVTITCKSSQSVLYSSNQKNYLAWYQQKPGKVPKLLIYWASTRESGVPSRFSGSGSGTDFTLTISSLQPEDVATYYCHQYLYSWTFGQGTKLEIKRLEPKSSDKTHTCPPCPAPEAAGAPSVFLFPPKPKDTLMISRTPEVTCVVVDVSHEDPEVKFNWYVDGVEVHNAKTKPREEQYNSTYRVVSVLTVLHQDWLNGKAYACAVSNKALPAPIEKTISKAKGQPREPQVYTLPPSRDELTKNQVSLTCLVKGFYPSDIAVEWESNGQPENNYKTTPPVLDSDGSFFLYSKLTVDKSRWQQGNVFSCSVMHEALHNHYTQKSLSLSPG |  |  | binds
